Data reported in patent US20230287070A1, “NOVEL TUMOR-SPECIFIC ANTIGENS FOR ACUTE MYELOID LEUKEMIA (AML) AND USES THEREOF” (UNIVERSITE DE MONTREAL, priority 2020, published 2023).
Values belong to the molecule of their own block, whether it stands above or below them.

Key:
T-cell clonotypes = assay: FEST assay (functional expansion of specific T cells, TCR Vβ CDR3 sequencing); assay type: cell-based, human; conditions: pool of TSAs^hi, healthy donor
Description: For FEST assays, T cells were cultured as previously described, with minor modifications (Danilova et al., 2018). Briefly, on day 0, thawed PBMCs from a healthy donor (BioIVT) were T-cell enriched using the Human Pan T-cell isolation kit (Miltenyi). T cells were resuspended at 2 × 10^6/mL in AIM V media supplemented with 50 µg/mL gentamicin (ThermoFisher Scientific) and 1% Hepes. The T cell-negative fraction was irradiated at 30 Gy, washed and resuspended at 2.0 × 10^6/mL in AIM V media supplemented with 50 µg/mL gentamicin and 1% Hepes. One ml per well of both T cells and irradiated T cell-depleted cells were added to a 12-well plate, along with either one of the 3 TSA^hi pools (5 TSAs^hi per pool, 1 µM final concentration for each TSA) or without peptide. Cells were cultured for 10 days at 37° C., 5% CO2. On day 3 and 7, half the culture media was replaced with fresh culture media containing 100 IU/mL IL-2, 50 ng/mL IL-7, and 50 ng/mL IL-15 (day 3) and 200 IU/mL IL-2, 50 ng/mL IL-7, and 50 ng/mL IL-15 (day 7). On day 10, cells were harvested and CD8^+ cells were further isolated using the Human CD8^+ T Cell Isolation Kit (Miltenyi). As a negative control, CD8^+ T cells were also isolated from freshly thawed uncultured PBMCs of the same healthy donor. DNA was extracted from CD8^+ T cells using a Qiagen DNA blood mini kit (Qiagen). […]

[1] = biological target: Pool 2 of TSAs^hi: … … … … …; assay: cell-based or functional assay
[2] = biological target: Pool 3 of TSAs^hi: LRSQILSY … … … …; assay: cell-based or functional assay
[3] = biological target: Pool 1 of TSAs^hi: … … … IASPIALL …; assay: cell-based or functional assay

FEST assay: clonotype expansion, odds ratio (FDR 0.010284) [1]: 10.8
Molecule: CASSYVLNTEAFF (TCR)

FEST assay: clonotype expansion, odds ratio (FDR 1.13 E-10) [2]: 45.4
Molecule: CASSADSSLGGYTF (TCR)

FEST assay: clonotype expansion, odds ratio (FDR 4.67 E-30) [1]: 59.8
Molecule: CASSEYRALNTEAFF (TCR)

FEST assay: clonotype expansion, odds ratio (FDR 1.2 E-07) [3]: 18.8
Molecule: CASTVVAGNSSPLHF (TCR)

FEST assay: clonotype expansion, odds ratio (FDR 0.008031) [1]: 8.21
Molecule: CATSRSGDSNQPQHF (TCR)

FEST assay: clonotype expansion, odds ratio (FDR 1.14 E-08) [1]: 3.46
Molecule: CASSESGTGGQPQHF (TCR)

The remaining lines, values behind:

Molecule: 3 (GARQQIHSW; listed as Homo sapiens) [compound 3]
Significantly expanded clonotype (SEQ ID NO:) (T-cell clonotypes): CARSFGGFF (213)

Molecule: CASSRTGENTEAFF (TCR)
FEST assay: clonotype expansion, odds ratio (FDR 0.003813) [1]: 3.35

Molecule: CASSDRTGGSSNEKLFF (TCR)
FEST assay: clonotype expansion, odds ratio (FDR 0.008031) [1]: 8.21

Molecule: CASSSTDRQHYGYTF (TCR)
FEST assay: clonotype expansion, odds ratio (FDR 0.007052) [1]: 3.76

Molecule: CASSVDAGGNYEQYF (TCR)
FEST assay: clonotype expansion, odds ratio (FDR 0.000665) [3]: 12.3
